We go through one substance from doi:10.1101/2020.05.06.080465.

The target of the assay is 19S proteasomal subunit (human (endogenous in HeLa)). The assay can be described thus: SEC.

Substance “ubiquitin receptor ADRM1 (from UniProt Q16186 1-407) (natural protein)” displayed a percent of the ADRM1 signal associated with 19S of 15%.
